Measured values from patent publication US20130142802A1 (published 2013).

Target: T1, FGF8b (UniProt P55075-3 23-215)
T1 construct: Coated on ELISA plates; also called ligand protein FGF8b
T1 sequence (looked up): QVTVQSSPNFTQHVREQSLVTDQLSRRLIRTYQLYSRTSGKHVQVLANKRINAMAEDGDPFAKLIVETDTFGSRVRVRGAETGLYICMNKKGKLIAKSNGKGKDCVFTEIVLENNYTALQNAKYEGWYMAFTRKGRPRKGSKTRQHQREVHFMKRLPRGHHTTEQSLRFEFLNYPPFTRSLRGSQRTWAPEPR
Test: ligand binding ELISA (data not shown)

binding result: no binding
B1: FGFR2 IIIb-Fc (Fc fusion)
chain: TLEPEDAISSGDDEDDTDGAEDFVSENSNNKRAPYWTNTEKMEKRLHAVPAANTVKFRCPAGGNPMPTMRWLKNGKEFKQEHRIGGYKVRNQHWSLIMESVVPSDKGNYTCVVENEYGSINHTYHLDVVERSPHRPVLQAGLPANASTVVGGDVEFVCKVYSDAQPHIQWIKHVEKNGSKYGPDGLPYLKVLKHSGINSSNAEVLALFNVTEADAGEYICKVSNYIGQANQSAWLTVLPKQQAPGREKEITASPDYLEDKTHTCPPCPAPELLGGPSVFLFPPKPKDTLYITREPEVTCVVVDVSHEDPEVKFNWYVDGVEVHNAKTKPREEQYNSTYRVVSVLTVLHQDWLNGKEYKCKVSNKALPAPIEKTISKAKGQPREPQVYTLPPSREEMTKNQVSLTCLVKGFYPSDIAVEWESNGQPENNYKTTPPVLDSDGSFFLYSKLTVDKSRWQQGNVFSCSVMHEALKFHYTQKSLSLSPGK
notes: also called FGFR2IIIb beta-ECD; FGFR2IIIb-hFc
